This is an account of results in paper PMC12562645, “Enhancement of Activity of Thermophilic Inorganic Pyrophosphatase Ton1914 via Site-Directed Mutagenesis” (Biomolecules, 2025).

B1: Ton1914 (Thermococcus onnurineus NA1) (protein)
chain: MNPFHELEPGPEVPEVVYALIEIPKGSRNKYELDKKTGLLKLDRVLYSPFFYPVDYGIIPQTWYDDGDPFDIMVIMREPVYPLTIVEARPIGIMKMEDSGDKDWKVLAVPVEDPYFNDWKDIDDVPKAFLDEIAHFFQRYKELQGKVTTVEGWGTAEEAKREILRAIEMYKEKFGKKE
notes: pET28a-Ton1914 expressed in E. coli BL21(DE3); heat-treated (80 °C) supernatant concentrated by ultrafiltration
B2: Ton1914 (Thermococcus onnurineus NA1; D101K/L42F) (protein)
chain: B1 chain with L42F, D101K
notes: as for B1
B3: Ton1914 (Thermococcus onnurineus NA1; E97Y/L42F) (protein)
chain: B1 chain with L42F, E97Y
notes: as for B1
B4: Ton1914 (Thermococcus onnurineus NA1; E97Y) (protein)
chain: B1 chain with E97Y
notes: as for B1
B5: Ton1914 (Thermococcus onnurineus NA1; D101K) (protein)
chain: B1 chain with D101K
notes: as for B1
B6: Ton1914 (Thermococcus onnurineus NA1; D101K/E97Y) (protein)
chain: B1 chain with E97Y, D101K
notes: as for B1
B7: Ton1914 (Thermococcus onnurineus NA1; L42F) (protein)
chain: B1 chain with L42F
notes: as for B1

Residue numbers refer to the chain shown, from its start. In names and notes the source's numbering stands.

Substrate in the data set: O=P(O)(O)OP(=O)(O)O
Kind of data set: purified protein. It counts as biochemical, Thermococcus onnurineus. The settings on record: Mg2+, 90 °C, pH 9, pyrophosphate 0.05–1.0 mM, unit mM doubtful (M would fit the substrate range).
Consider B1, for which the Km is 3.03 ± 0.18 × 10^−4 mM.
With B2 the figure was 6.34 ± 0.82 × 10^−4 mM; with B3, 8.49 ± 0.30 × 10^−4 mM; with B4, 5.94 ± 0.14 × 10^−4 mM.
As to B5, the Km is 1.03 ± 0.04 × 10^−4 mM.
On to B6, for which the Km is 3.48 ± 0.27 × 10^−4 mM.
With B7, the Km is given as 3.18 ± 0.05 × 10^−4 mM.
